Assay results as given in US20020055130A1, “Method and product for regulating apoptosis” (National Jewish Center for Immunology and Respiratory …, priority 1997, published 2002).

B1: JNK1-APF: inhibitory mutant of JNK1 (protein, UniProt P45983 1-427, looked up, variant T183A Y185F)
Mitogen-activated protein …: MSRSKRDNNFYSVEIGDSTFTVLKRYQNLKPIGSGAQGIVCAAYDAILERNVAIKKLSRPFQNQTHAKRAYRELVLMKCVNHKNIIGLLNVFTPQKSLEEFQDVYIVMELMDANLCQVIQMELDHERMSYLLYQMLCGIKHLHSAGIIHRDLKPSNIVVKSDCTLKILDFGLARTAGTSFMMAPFVVTRYYRAPEVILGMGYKENVDLWSVGCIMGEMVCHKILFPGRDYIDQWNKVIEQLGTPCPEFMKKLQPTVRTYVENRPKYAGYSFEKLFPDVLFPADSEHNKLKASQARDLLSKMLVIDASKRISVDEALQHPYINVWYDPSEAEAPPPKIPDKQLDEREHTIEEWKELIYKEVMDLEERTKNGVIRGQPSPLGAAVINGSQHPSSSSSVNDVSSMSTDPTLASDTDSSLEAAAGPLGCCR
B2: JNK2-APF: inhibitory mutant of JNK2 (protein, UniProt P45984 1-424, looked up, variant T183A Y185F)
Mitogen-activated protein …: MSDSKCDSQFYSVQVADSTFTVLKRYQQLKPIGSGAQGIVCAAFDTVLGINVAVKKLSRPFQNQTHAKRAYRELVLLKCVNHKNIISLLNVFTPQKTLEEFQDVYLVMELMDANLCQVIHMELDHERMSYLLYQMLCGIKHLHSAGIIHRDLKPSNIVVKSDCTLKILDFGLARTACTNFMMAPFVVTRYYRAPEVILGMGYKENVDIWSVGCIMGELVKGCVIFQGTDHIDQWNKVIEQLGTPSAEFMKKLQPTVRNYVENRPKYPGIKFEELFPDWIFPSESERDKIKTSQARDLLSKMLVIDPDKRISVDEALRHPYITVWYDPAEAEAPPPQIYDAQLEEREHAIEEWKELIYKEVMDWEERSKNGVVKDQPSDAAVSSNATPSQSSSINDISSMSTEQTLASDTDSSLDASTGPLEGCR
B3: DEVE→A: MEKK1 mutant with DEVE (amino acids 857-860) substituted with alanines (protein, UniProt P53349 2-1493, looked up, variant D857A E858A V859A E860A)
Mitogen-activated protein …: AAAAGDRASSSGFPGAAAASPEAGGGGGGGGALQGSGAPAAGAAGLLREPGSAGRERADWRRRQLRKVRSVELDQLPEQPLFLAAASPPCPSTSPSPEPADAAAGASRFQPAAGPPPPGAASRCGSHSAELAAARDSGARSPAGAEPPSAAAPSGREMENKETLKGLHKMEDRPEERMIREKLKATCMPAWKHEWLERRNRRGPVVVKPIPIKGDGSEVNNLAAEPQGEGQAGSAAPAPKGRRSPSPGSSPSGRSVKPESPGVRRKRVSPVPFQSGRITPPRRAPSPDGFSPYSPEETSRRVNKVMRARLYLLQQIGPNSFLIGGDSPDNKYRVFIGPQNCSCGRGAFCIHLLFVMLRVFQLEPSDPMLWRKTLKNFEVESLFQKYHSRRSSRIKAPSRNTIQKFVSRMSNSHTLSSSSTSTSSSENSIKDEEEQMCPICLLGMLDEESLTVCEDGCRNKLHHHCMSIWAEECRRNREPLICPLCRSKWRSHDFYSHELSSPVESPASLRAVQQPSSPQQPVAGSQRRNQESSFNLTHFGTQQIPSAYKDLAEPWIQVFGMELVGCLFSRNWNVREMALRRLSHDVSGALLLANGESTGNSGGGSGGSLSAGAASGSSQPSISGDVVEACCSVLSIVCADPVYKVYVAALKTLRAMLVYTPCHSLAERIKLQRLLRPVVDTILVKCADANSRTSQLSISTVLELCKGQAGELAVGREILKAGSIGVGGVDYVLSCILGNQAESNNWQELLGRLCLIDRLLLEFPAEFYPHIVSTDVSQAEPVEIRYKKLLSLLTFALQSIDNSHSMVGKLSRRIYLSSARMVTAVPAVFSKLVTMLNASGSTHFTRMRRRLMAIAAAAAIAEVIQLGVEDTVDGHQDSLQAVAPTSCLENSSLEHTVHREKTGKGLSATRLSASSEDISDRLAGVSVGLPSSTTTEQPKPAVQTKGRPHSQCLNSSPLSHAQLMFPAPSAPCSSAPSVPDISKHRPQAFVPCKIPSASPQTQRKFSLQFQRNCSEHRDSDQLSPVFTQSRPPPSSNIHRPKPSRPVPGSTSKLGDATKSSMTLDLGSASRCDDSFGGGGNSGNAVIPSDETVFTPVEDKCRLDVNTELNSSIEDLLEASMPSSDTTVTFKSEVAVLSPEKAENDDTYKDDVNHNQKCKEKMEAEEEEALAIAMAMSASQDALPIVPQLQVENGEDIIIIQQDTPETLPGHTKAKQPYREDAEWLKGQQIGLGAFSSCYQAQDVGTGTLMAVKQVTYVRNTSSEQEEVVEALREEIRMMGHLNHPNIIRMLGATCEKSNYNLFIEWMAGGSVAHLLSKYGAFKESVVINYTEQLLRGLSYLHENQIIHRDVKGANLLIDSTGQRLRIADFGAAARLASKGTGAGEFQGQLLGTIAFMAPEVLRGQQYGRSCDVWSVGCAIIEMACAKPPWNAEKHSNHLALIFKIASATTAPSIPSHLSPGLRDVAVRCLELQPQDRPPSRELLKHPVFRTTW

Legend:
Assay type in all cases: cell-based, Human
[1] = tested on: HEK293 cells; experiment: MEKK1 staining and TdT-mediated dUTP incorporation (DNA fragmentation) in transfected cells; details: for diminution of apoptotic cells induced by MEKK1 expression: co-expression with MEKK1
Protocol: Human embryonal kidney 293 cells (HEK293) stably expressing the EBNA-1 protein from Epstein-Barr virus (Invitrogen) were grown in Dulbecco's modified Eagle's medium (DMEM) supplemented with 100 U/ml penicillin/streptomycin and containing 10% bovine calf serum (BCS). The cells were transfected using lipofectamine (Gibco).
Cells were grown on glass coverslips and transfected using lipofectamine. Two days after transfection, the medium was removed and the cells were fixed in 2% paraformaldehyde, 3% sucrose in phosphate buffered saline (PBS) for 10 min at room temperature. Following three washes with PBS, the cells were permeabilized for 10 min with 2% Triton-X100 in PBS. After three PBS washes, the cells were blocked with filtered cultured medium for 15 min. The coverslips were then incubated 1 hour in TdT reaction mix (200 mM potassium cacodylate, 25 mM Tris.HCl, pH 6.6, 250 μg/ml BSA, 5 mM CoCl2, 0.25 U/μl TdT [Boehringer], 10 μM biotin-dUTP [Boehringer]) at 37° C. in a humidifed atmosphere. […] The coverslips were then washed 6× over a 30 min period with PBS and incubated 1 hour at room temperature with a 1/1000 dilution in filtered culture medium of a donkey anti-rabbit, Cy^3-conjugated, antibody (Jackson Immunological) mixed with 5 μg/ml streptavidin conjugated with FITC (Jackson Immunological). The coverslips were washed 6× with PBS and incubated overnight in PBS before being mounted in 20 mg/ml o-phenyldiamine-diHCl (Sigma) in 0.1 M Tris pH 8.5, 90% glycerol. Images were taken using a Leica DMRXA microscope and analyzed with the SlideBook v2.0 software (Intelligent Imaging Innovations, Denver). The subcellular localization of endogenous MEKK1 observed with the anti-COOH-terminal MEKK1 antibody was identical to that observed with a second antibody recognizing the NH2-terminal portion of the MEKK1 protein.

[2] = tested on: c-Jun kinase (JNK); experiment: c-Jun kinase assay, transfected HEK293 cells; details: for effect on activation of the JNKs by MEKK1: co-expression with MEKK1
Protocol: (§1) Lysis buffer (70 mM β-glycerophosphate, 1 mM EGTA, 100 μM Na3VO4, 1 mM DTT, 2 mM MgCl2, 0.5% Triton-X100, 20 μg/ml aprotinin) was added to cells 15-24 hours after transfection. Cellular debris was removed by centrifugation at 8,000xg for 5 min. Protein concentration was normalized by Bradford assay using BSA as standard.
c-Jun kinase (JNK) activity was measured using a solid phase kinase assay in which glutathione S-transferase-c-Jun(1-79) (GST-Jun) bound to glutathione-Sepharose 4B beads was used to affinity-purify JNK from cell lysates as described (Gardner and Johnson, 1996; Hibi et al., 1993). Alternatively, JNKI or JNK2 were immunoprecipitated with isoform specific antibodies (Santa Cruz Biotechnology) and GST-Jun used as substrate in an in vitro kinase assay (Hibi et al., 1993). Quantitation of the phosphorylation of GST-Jun was performed with a Phosphorlmager.

[3] = tested on: ERK2; experiment: ERK2 immunoprecipitation kinase assay, transfected HEK293 cells; details: co-expression with MEKK1
Protocol: as §1
ERK2 was immunoprecipitated as described above for the JNK isoforms using the ERK2 (C-14) antibody (Santa Cruz Biotechnology). The beads were washed twice with 1 ml lysis buffer and twice with 1 ml lysis buffer without Triton-X100. […] The samples were washed thrice for 5 min each in 75 mM phosphoric acid and once for 2 min in acetone, air-dried, and their radioactivity determined in a β counter.

[4] = tested on: MEKK1; experiment: Immunoblot of cleavage fragments of transfected HA-tagged MEKK1 in HEK293 cells; details: for effect on proteolysis of MEKK1: co-expression with MEKK1
Description: The full length cDNA encoding mouse MEKK1 was modified by addition of the HA-tag sequence ([…]) (SEQ ID NO: 12) at its NH2-terminus and inserted into the expression plasmid pCEP4 (Invitrogen), resulting in plasmid MEKK1.cp4. The MEKK1 sequences DTVD (amino acids 871-874) and DEVE (amino acids 857-860) in MEKK1.cp4 were substituted with alanines using a PCR strategy. The resulting plasmids were named DTVD_A.cp4 and DEVE_A.cp4. The cDNAs for CrmA (Pickup et al., 1986), p35 (Cartier et al., 1994), JNK1-APF (Dérijard et al., 1994) and JNK2-APF (Kallunki et al., 1994) were subcloned in pCEP4 in which the hygromycin resistance gene had been removed, resulting in plasmids CrmA.cp_, p35.cp_, JNK1_APF.cp and JNK2_APF.cp_. Plasmid pCDNA—3.cp4 is the result of the ligation of pCEP4 and pCDNA-3.
200-400 μg cell lysate protein was subjected to SDS-9% PAGE and transferred to nitrocellulose membranes. Blots were performed exactly as described (Widmann et al., 1995). To detect HA-tagged proteins, the mouse monoclonal antibody 12CA5 (Babco) was used as the primary antibody, followed by a rabbit anti-mouse antibody (Cappel). HRP-conjugated protein A at a 1/5000 dilution (Zymed) and ^125I-protein A at a 1/500 dilution (Dupont NEN) were then used for enhanced chemiluminescence (ECL) detection and for quantification using the phosphorimager. To detect MEKK1, 3 different ploclonal antisera were used as primary antibodies, followed by ECL detection using HRP-protein A (see above). These sera were generated by injecting rabbits with GST proteins fused with different portions of the MEKK1 protein.

Molecule | diminution of apoptotic cells induced by MEKK1 expression [1] | diminution of apoptotic cells induced by MEKK1 expression ([1]; listed as JNKI-APF) | effect on activation of the JNKs by MEKK1 [2] | effect on activation of ERK2 by MEKK1 [3] | effect on proteolysis of MEKK1 [4] | DNA fragmentation ([1]; expression in HEK293 cells) | JNK activation ([2]; expression in HEK293 cells) | MEKK1 cleavage fragments generated ([4]; mutants transfected into HEK293 cells)
B1 | no effect | no protective effect | unaffected | unaffected | little effect on the proteolysis of the MEKK1 protein | – | – | –
B2 | – | – | unaffected | unaffected | little effect on the proteolysis of the MEKK1 protein | – | – | –
B3 | – | – | – | – | – | induced DNA fragmentation | activated JNK to the same level as wild type MEKK1 | cleaved into fragments A, B, C and D
